Measured values: US20220289837A1, “Cystic Fibrosis Transmembrane Conductance Regulator Stabilizing Agents” (VIB VZW, priority 2019, published 2022)

Key:
wt-CFTR [1] = target: T1, wt-CFTR (Homo sapiens, UniProt P13569); test: CFTR pull-down from solubilized BHK-21 cells with immunoblot; type: binding; set-up: expressed in transfected cells; details: immunoblot with mAb 596
Procedure: Human wt-CFTR was extracted from BHK-21 cells pellet by solubilization with 1% DMNG in PBS with proteases inhibitors for 1 h at 4° C. The cells debris were removed by centrifugation (16,000×g for 30 min at 4° C.). Supernatant was diluted 10 times in PBS with proteases inhibitors plus 10 mM imidazole and incubated at least for 30 min on HisPur Ni-NTA Resin (Thermo Scientific) pre-loaded with nanobodies. Resin was washed with 40 column volumes of PBS with 300 mM NaCl. Nanobodies were eluted with 200 mM imidazole in PBS. Presence of CFTR in each sample was detected by SDS-PAGE and immuno-blotting.
Cell extracts were separated by SDS-PAGE on 7.5% polyacrylamide gel and transferred to nitrocellulose membrane (Bio-Rad) for immunodetection. After blocking for 1 h with 5% bovine serum albumin (BSA) in Tris-buffered saline added 0.05% Tween-20 (TBST), CFTR was detected using monoclonal antibody mAb 596, IgG2b (CFTR Antibody Distribution Program, dilution 1:46) for 1 h in blocking buffer. Blot was washed 3 times 5 min and incubated with anti-mouse-HRP antibody (Millipore, catalogue number: AP308P, 0.2 μg/ml) for 1 h in TBST. Membrane was washed 3 times for 5 min. CFTR was visualized by chemiluminescence using Luminata Forte Western HRP Substrate (Millipore) and detected with ImageQuant 400 (GE Healthcare).

2PT-F508del-CFTR = target: T2, 2PT-F508del-CFTR (Homo sapiens, UniProt P13569, A534P/DEL508-508/I539T/S492P); test: Flow cytometry on BHK-21 cells expressing 2PT-F508del-CFTR; type: cell-based
T2 construct: expressed in transfected cells
Procedure: (§1) Parental BHK-21 cells (ATCC; CCL-10) and cells stably overexpressing human wt-CFTR^[43,44,47] or 2PT-F508del-CFTR, as described above, were permeabilized with 0.01% n-Dodecyl-β-D-Maltopyranoside β-DDM—Inalco) at least for 2 h on ice. In the meantime, cells were incubated with 50 μg/ml nanobodies and DRAQ7 (0.3 μM—Biostatus) to monitor the permeabilization state. Nanobody binding was detected by using His-tag specific antibody (Invitrogen, catalogue number MA1-135, 1 μg/ml) or Myc-tag specific antibody (Invitrogen, catalogue number 13-2500, 2 μg/ml) and then anti-mouse-Alexa Fluor 488 (Invitrogen, catalogue number A11001, 1.3 μg/ml) at least for 30 min on ice. Cells were washed one time between each step by centrifugation (200×g for 5 min at 4° C.). All incubations (100 μl) and washes (1.5 ml) were performed in PBS with 6% fetal bovine serum (FBS) and 0.01%13-DDM on ice. Cells fluorescence was measured with Gallios Flow Cytometer (Beckman Coulter). Data were analyzed with Kaluza software.

2PT-NBD1 = target: T3, 2PT-NBD1 (Homo sapiens, UniProt P13569, A534P/I539T/S492P/V470M); test: Thermal shift assay (DSF) of 2PT-NBD1; type: binding; details: versus isolated 2PT-NBD1
T3 construct: 2PT-NBD1 mutants (residues 387-646 containing the mutations S492P, A534P, I539T); His6-SUMO (N, cleaved yes); made in house; host or cells: Escherichia coli BL21(DE3) pLysS
Procedure: (§2) Solutions of either 2PT-NBD1 or F508del-2PT-NBD1 (10 μM final concentration), nanobodies (30 μM final concentration) and 2.5× or 5× concentrated SYPRO Orange Protein Stain (Molecular Probes) diluted in 20 mM HEPES pH 7.5, 150 mM NaCl, 3 mM MgCl2, 2 mM ATP and 10% (w/v) glycerol, 10% (w/v) ethylene glycol, were added to the wells of a 96-well PCR plates type BR white (VWR) in a final volume of 25 μl. Plates were sealed with EasySeal sheets (Molecular dimensions) and spun 2 min at 900× g. SYPRO orange fluorescence was monitored in CFX96 Touch Real-Time PCR Detection System (Bio-Rad) using FRET scan mode from 10 to 80° C. in increments of either 1° C. or 0.2° C.

wt-CFTR [2] = target: T1, wt-CFTR; test: Flow cytometry on permeabilized BHK-21 cells overexpressing wt-CFTR; type: cell-based; set-up: expressed in transfected cells; details: compared to negative control nanobody
Procedure: as §1

F508del-2PT-NBD1 = target: T4, F508del-2PT-NBD1 (Homo sapiens, UniProt P13569, A534P/DEL508-508/I539T/S492P/V470M); test: Thermal shift assay (DSF) of F508del-2PT-NBD1; type: binding
T4 construct: His6-SUMO (N, cleaved yes); made in house; host or cells: Escherichia coli BL21(DE3) pLysS
Procedure: as §2

F508del-CFTR = target: T5, F508del-CFTR (Homo sapiens, UniProt P13569, DEL508-508); test: HS-YFP quenching assay; type: cell-based; details: HEK293T F508del-CFTR + HS-YFP, 10 μM forskolin and 3 μM VX770, 3 μM VX809 or DMSO 24 h
T5 construct: expressed in transfected cells
Procedure: To study CFTR function in cells, we used a HS-YFP quenching assay where changes in fluorescence of halide sensitive YFP (HS-YFP) reflect halide entrance through CFTR. HEK293T cells stably expressing F508del-CFTR (or WT CFTR as a control) and a modified YFP were transiently transfected with pcDNA3-based plasmid coding either for a stabilizing nanobody (T2a, D12 or T27) or a control nanobody (not binding F508del-CFTR) and incubated with 3 μM VX809 corrector or 0.06% DMSO for 24 h. Before addition of iodide, cells are stimulated by 10 μM forskolin and 3 μM VX770 potentiator for 20 mins and YFP fluorescence signal is measured (excitation 485, emission 535 nm) over a period of 4 seconds.
The assay was performed as described previously in (Ensinck, et al. 2020) with minor modifications. Briefly, cells stably expressing wt- or F508del-CFTR and a halide sensitive yellow fluorescent protein (HS-YFP) (Galietta, et al. 2001) were transfected with plasmids encoding the nanobodies using PEI and immediately plated into black, clear-bottomed 96-well plates coated with Poly-D-Lysine. After overnight incubation VX-809 (3 μM) or DMSO was added for 24 h. Next, the cells were washed with DPBS and potentiator VX-770 (3 μM) and/or CFTR activator forskolin (#F3917, Sigma-Aldrich, 10 μM) was added for 20 min. Fluorescence was measured after which a I^− buffer (137 mM Nal, 2.7 mM KI, 1.7 mM KH2PO4, 10.1 mM Na2HPO4, 5 mM D-glucose) was injected into the well and fluorescence monitored for another 4 s. YFP quenching was determined at the end of the interval as F/F0, and CFTR function as 1-(F/F0).

T1 sequence (P13569 whole entry): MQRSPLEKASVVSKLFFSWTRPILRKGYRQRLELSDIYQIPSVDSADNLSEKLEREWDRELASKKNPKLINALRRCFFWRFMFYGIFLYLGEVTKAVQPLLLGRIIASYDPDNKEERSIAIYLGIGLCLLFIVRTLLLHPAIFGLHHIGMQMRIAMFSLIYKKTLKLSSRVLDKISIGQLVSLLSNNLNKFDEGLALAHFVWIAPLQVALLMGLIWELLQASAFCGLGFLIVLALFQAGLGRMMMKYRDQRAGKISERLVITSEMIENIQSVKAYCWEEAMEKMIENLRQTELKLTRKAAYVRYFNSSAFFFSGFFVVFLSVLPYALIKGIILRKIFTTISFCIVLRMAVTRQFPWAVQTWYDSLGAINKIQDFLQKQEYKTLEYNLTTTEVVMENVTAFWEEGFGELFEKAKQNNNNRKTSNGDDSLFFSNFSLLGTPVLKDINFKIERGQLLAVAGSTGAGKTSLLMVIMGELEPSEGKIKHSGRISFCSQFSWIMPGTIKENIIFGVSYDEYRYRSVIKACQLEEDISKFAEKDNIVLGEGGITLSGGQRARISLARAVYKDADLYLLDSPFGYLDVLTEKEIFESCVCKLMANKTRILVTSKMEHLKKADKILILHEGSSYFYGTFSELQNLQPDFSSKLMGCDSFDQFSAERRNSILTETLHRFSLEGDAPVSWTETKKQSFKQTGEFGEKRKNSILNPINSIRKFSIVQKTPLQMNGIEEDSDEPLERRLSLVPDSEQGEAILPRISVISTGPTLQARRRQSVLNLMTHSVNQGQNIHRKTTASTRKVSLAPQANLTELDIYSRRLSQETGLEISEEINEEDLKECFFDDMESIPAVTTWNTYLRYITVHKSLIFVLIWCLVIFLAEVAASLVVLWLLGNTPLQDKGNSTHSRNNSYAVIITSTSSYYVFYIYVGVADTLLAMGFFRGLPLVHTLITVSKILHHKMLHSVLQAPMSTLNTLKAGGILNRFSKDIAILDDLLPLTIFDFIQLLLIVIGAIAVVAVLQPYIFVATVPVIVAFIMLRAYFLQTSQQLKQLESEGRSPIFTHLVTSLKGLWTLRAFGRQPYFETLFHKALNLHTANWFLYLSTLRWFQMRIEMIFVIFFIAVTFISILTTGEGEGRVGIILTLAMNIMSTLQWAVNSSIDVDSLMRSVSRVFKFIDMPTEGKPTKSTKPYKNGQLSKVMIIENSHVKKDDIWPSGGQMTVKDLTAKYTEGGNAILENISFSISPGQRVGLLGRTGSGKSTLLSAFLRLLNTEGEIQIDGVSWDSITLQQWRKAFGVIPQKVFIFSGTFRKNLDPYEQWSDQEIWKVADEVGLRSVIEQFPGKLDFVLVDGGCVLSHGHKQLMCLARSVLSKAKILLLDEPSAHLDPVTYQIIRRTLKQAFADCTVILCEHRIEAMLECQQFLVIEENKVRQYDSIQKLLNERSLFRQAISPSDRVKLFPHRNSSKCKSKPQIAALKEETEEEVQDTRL
T5 sequence (P13569 with tags, fused parts or gaps DEL508-508): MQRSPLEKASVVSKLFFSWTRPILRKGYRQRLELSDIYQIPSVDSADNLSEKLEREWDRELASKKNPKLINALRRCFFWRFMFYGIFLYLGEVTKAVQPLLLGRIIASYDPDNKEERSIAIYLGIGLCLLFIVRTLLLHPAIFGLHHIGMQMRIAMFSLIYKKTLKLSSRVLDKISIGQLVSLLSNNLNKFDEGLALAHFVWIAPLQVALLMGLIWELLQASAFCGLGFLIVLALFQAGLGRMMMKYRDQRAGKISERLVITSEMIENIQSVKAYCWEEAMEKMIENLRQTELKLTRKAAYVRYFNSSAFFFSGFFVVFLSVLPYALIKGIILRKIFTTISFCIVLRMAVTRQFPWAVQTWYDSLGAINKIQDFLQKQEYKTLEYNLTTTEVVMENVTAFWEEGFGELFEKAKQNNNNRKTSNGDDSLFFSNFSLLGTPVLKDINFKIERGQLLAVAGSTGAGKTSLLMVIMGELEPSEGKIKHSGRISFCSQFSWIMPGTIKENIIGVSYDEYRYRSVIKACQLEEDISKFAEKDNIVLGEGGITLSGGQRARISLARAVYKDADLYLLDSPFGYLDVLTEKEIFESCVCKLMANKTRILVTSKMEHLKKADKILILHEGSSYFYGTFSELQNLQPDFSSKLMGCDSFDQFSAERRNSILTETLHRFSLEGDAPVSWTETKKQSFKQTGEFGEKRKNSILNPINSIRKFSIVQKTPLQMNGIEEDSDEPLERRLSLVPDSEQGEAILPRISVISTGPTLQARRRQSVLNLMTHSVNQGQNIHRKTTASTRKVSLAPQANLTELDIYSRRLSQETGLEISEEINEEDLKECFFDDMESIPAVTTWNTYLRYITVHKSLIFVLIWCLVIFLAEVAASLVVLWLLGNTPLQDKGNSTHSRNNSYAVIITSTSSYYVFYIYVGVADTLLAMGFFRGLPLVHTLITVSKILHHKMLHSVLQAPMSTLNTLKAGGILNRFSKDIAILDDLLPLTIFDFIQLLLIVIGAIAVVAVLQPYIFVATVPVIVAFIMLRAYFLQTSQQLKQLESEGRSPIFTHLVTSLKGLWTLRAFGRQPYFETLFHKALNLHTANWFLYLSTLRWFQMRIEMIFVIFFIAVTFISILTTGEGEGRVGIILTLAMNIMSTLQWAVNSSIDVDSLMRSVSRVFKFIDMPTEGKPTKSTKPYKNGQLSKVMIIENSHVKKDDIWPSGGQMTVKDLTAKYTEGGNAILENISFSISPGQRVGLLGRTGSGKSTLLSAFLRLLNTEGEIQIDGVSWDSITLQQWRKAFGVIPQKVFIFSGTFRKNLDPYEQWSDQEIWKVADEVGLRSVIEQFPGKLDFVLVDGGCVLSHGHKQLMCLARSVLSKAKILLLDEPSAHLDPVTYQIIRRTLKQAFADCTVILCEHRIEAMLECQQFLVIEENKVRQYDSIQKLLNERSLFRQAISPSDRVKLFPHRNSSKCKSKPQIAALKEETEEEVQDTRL
T3 sequence (P13569 388-646 V470M/S492P/A534P/I539T): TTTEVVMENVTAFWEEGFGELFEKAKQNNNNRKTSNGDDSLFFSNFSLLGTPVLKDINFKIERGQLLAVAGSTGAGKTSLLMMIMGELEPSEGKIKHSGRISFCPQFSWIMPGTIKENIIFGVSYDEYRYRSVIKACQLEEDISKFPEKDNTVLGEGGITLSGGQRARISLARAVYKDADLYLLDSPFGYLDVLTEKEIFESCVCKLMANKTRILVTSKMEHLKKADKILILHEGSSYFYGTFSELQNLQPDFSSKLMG
T2 sequence (P13569 with tags, fused parts or gaps S492P/DEL508-508/A534P/I539T): as the sequence (P13569 with tags, fused parts or gaps DEL508-508) above, with S492P, A533P, I538T counted along it
T4 sequence (P13569 with tags, fused parts or gaps V470M/S492P/DEL508-508/A534P/I539T limits assumed): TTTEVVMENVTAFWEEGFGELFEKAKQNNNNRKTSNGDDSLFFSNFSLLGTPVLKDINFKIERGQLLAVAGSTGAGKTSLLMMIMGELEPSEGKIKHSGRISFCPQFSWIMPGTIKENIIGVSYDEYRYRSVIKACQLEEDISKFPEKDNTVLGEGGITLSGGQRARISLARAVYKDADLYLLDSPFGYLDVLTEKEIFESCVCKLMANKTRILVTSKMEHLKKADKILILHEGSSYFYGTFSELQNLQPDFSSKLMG

B1: G3a: non-stabilizing nanobody, SEQ ID NO:50, recognizes the structurally diverse region of NBD1 (protein)
VHH: QVQLQESGGGLVQAGGSLRLSCTASGRAFSWYVMGWFRQAPGKEREFVATVSGNGSRRDYADSVKGRFTISRDNAKNTVYLQMNSLKPEDTAVYYCAASSTYYYTDPEKYDYWGQGTQVTVSS
modifications: G3a Nanobody
Question: For B1, which “pull-down of cellular CFTR, electrophoresis pattern (mature band C)” value (from here on “pull-down of cellular CFTR”) (wt-CFTR [1]) is on record?
Answer: Its value is “identical electrophoresis pattern as observed in whole cell lysate”.

Question: What about the “binding to 2PT-F508del expressing cells” value (2PT-F508del-CFTR) of the same molecule?
Answer: Its value is “bind efficiently”.

Question: And the “increase of Tm of 2PT-NBD1” value (2PT-NBD1)?
Answer: Its value is “did not induce a significant shift”.

Question: And the “labelling of BHK-21 cells overexpressing wt-CFTR” value (“labelling” for short) (wt-CFTR [2])?
Answer: The value was “increased labelling”.

B2: T8: nanobody, SEQ ID NO:7, binds epitope 2 including F508, stabilizes WT CFTR but not F508del (protein)
VHH: QVQLQESGGGLVQPGGSLRLSCAASGSTSSINAMGWYRQAPGKQREPVAISSSGGDTRYAEPVKGRFTISRDNAQNKVYLQMNSLKPEDTAVYYCWLNWGRTSVNSWGQGTQVTVSS
modifications: T8 Nanobody amino acid sequence
Question: How did the “pull-down of cellular CFTR” value (wt-CFTR [1]) turn out when B2 was run?
Answer: The value was “identical electrophoresis pattern as observed in whole cell lysate”.

Question: What about the “binding to 2PT-F508del expressing cells” value (2PT-F508del-CFTR) of the same molecule?
Answer: The value was “not able to bind”.

Question: And the “increase of Tm of 2PT-NBD1” value (2PT-NBD1)?
Answer: The value was 9.3 °C.

Question: What about the “labelling” value (wt-CFTR [2]) of the same molecule?
Answer: The value was “increased labelling”.

Question: And the “stabilization of F508del-2PT-NBD1” value (F508del-2PT-NBD1)?
Answer: Its value is “did not stabilize”.

B3: D12: NBD1-specific CFTR-stabilizing nanobody, SEQ ID NO:2, binds epitope 1 (protein)
VHH: QVQLQESGGGLVQAGSSLRLACAATGSIRSINNMGWYRQAPGKQRGMVAIITRVGNTDYADSVKGRFTISRDNAKNTVYLQMNSLKPEDTATYYCHAEITEQSRPFYLTDDYWGQGTQVTVSS
modifications: D12 Nanobody amino acid sequence
Question: What does the source list for B3?
Answer: pull-down of cellular CFTR, electrophoresis pattern (mature band C) (wt-CFTR [1]): also observed; increase of Tm of 2PT-NBD1 (2PT-NBD1): 13.8 °C; quenching of YFP (CFTR function) (F508del-CFTR): quenching of YFP; labelling of BHK-21 cells overexpressing wt-CFTR (wt-CFTR [2]): increased labelling; stabilization of F508del-2PT-NBD1 (F508del-2PT-NBD1): to the same extent as 2PT-NBD1

B4: T2a: NBD1-specific CFTR-stabilizing nanobody, SEQ ID NO:3, binds epitope 1 (protein)
VHH: QVQLQESGGGLVQAGGSLRLSCAASGSIFRIDAMGWYRQAPGKQRELVAHSTSGGSTDYADSVKGRFTISRDNAKNTVYLQMNSLKPEDTAVYYCNADVRTRWYASNNYWGQGTQVTVSS
modifications: T2a Nanobody amino acid sequence
Question: Which results are given for B4?
Answer: pull-down of cellular CFTR, electrophoresis pattern (mature band C) (wt-CFTR [1]): identical electrophoresis pattern as observed in whole cell lysate; binding to 2PT-F508del expressing cells (2PT-F508del-CFTR): bind efficiently; increase of Tm of 2PT-NBD1 (2PT-NBD1): 11.2 °C; quenching of YFP (CFTR function) (F508del-CFTR): quenching of YFP; labelling of BHK-21 cells overexpressing wt-CFTR (wt-CFTR [2]): increased labelling; stabilization of F508del-2PT-NBD1 (F508del-2PT-NBD1): to the same extent as 2PT-NBD1

B5: T27: NBD1-specific CFTR-stabilizing nanobody, SEQ ID NO:4, binds epitope 1 (protein)
VHH: QVQLQESGGGLEQPGGSLRLSCATSGVIFGINAMGWYRQAPGKQRELVATFTSGGSTNYADFVEGRFTISRDNAKNTVYLQMNGLRPEDTAVYYCHATVVVSRYGLTYDYWGQGTQVTVSS
modifications: T27 Nanobody amino acid sequence
Question: For B5, which “pull-down of cellular CFTR” value (wt-CFTR [1]) is on record?
Answer: Its value is “also observed”.

Question: And the “increase of Tm of 2PT-NBD1” value (2PT-NBD1)?
Answer: The value was 11.9 °C.

Question: What about the “quenching of YFP (CFTR function)” value (F508del-CFTR) of the same molecule?
Answer: The value was “quenching of YFP”.

Question: And the “labelling” value (wt-CFTR [2])?
Answer: Its value is “increased labelling”.

Question: What about the “stabilization of F508del-2PT-NBD1” value (F508del-2PT-NBD1) of the same molecule?
Answer: The value was “to the same extent as 2PT-NBD1”.
